Experimental data published in PMC9482650, “Quantitative fragmentomics allow affinity mapping of interactomes” (Nature Communications, 2022).

How the values were obtained:
Assay in all cases: holdup assay
Design in all cases: key: below the threshold = too weak to quantify, mostly under pKd 3.1 to 4
LIN7A, O14910 = target: T1, LIN7A, O14910
T1 sequence (O14910 103-200, limits assumed, looked up): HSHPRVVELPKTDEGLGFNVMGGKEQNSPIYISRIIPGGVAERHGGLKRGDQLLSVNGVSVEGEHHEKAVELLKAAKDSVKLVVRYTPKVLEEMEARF

MAST2, Q6P0Q8 = target: MAST2, Q6P0Q8
NHERF4_4, Q86UT5 = target: NHERF4_4, Q86UT5
GRIP1_3, Q9Y3R0 = target: T2, GRIP1_3, Q9Y3R0
T2 sequence (Q9Y3R0 247-346, limits assumed, looked up): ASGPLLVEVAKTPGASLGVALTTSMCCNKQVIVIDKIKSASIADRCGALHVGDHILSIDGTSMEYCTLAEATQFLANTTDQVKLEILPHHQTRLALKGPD

GRIP1_5, Q9Y3R0 = target: T3, GRIP1_5, Q9Y3R0
T3 sequence (Q9Y3R0 568-668, limits assumed, looked up): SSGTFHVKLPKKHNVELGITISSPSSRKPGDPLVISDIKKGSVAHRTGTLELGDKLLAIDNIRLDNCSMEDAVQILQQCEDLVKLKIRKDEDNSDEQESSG

RAPGEF6, Q8TEU7 = target: T4, RAPGEF6, Q8TEU7
T4 sequence (Q8TEU7 525-625, limits assumed, looked up): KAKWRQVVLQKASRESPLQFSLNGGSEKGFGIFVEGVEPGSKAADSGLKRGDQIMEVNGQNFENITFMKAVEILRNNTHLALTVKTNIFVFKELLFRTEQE

LNX1_3, Q8TBB1 = target: LNX1_3, Q8TBB1
LNX1_1, Q8TBB1 = target: LNX1_1, Q8TBB1
GORASP1, Q9BQQ3 = target: GORASP1, Q9BQQ3
PDLIM1, O00151 = target: PDLIM1, O00151
Inadl_10, Q8NI35 = target: Inadl_10, Q8NI35
NHERF4_2, Q86UT5 = target: NHERF4_2, Q86UT5
SCRIB_1, Q14160 = target: SCRIB_1, Q14160
GIPC2, Q8TF65 = target: GIPC2, Q8TF65
PDZRN4_1, Q6ZMN7 = target: PDZRN4_1, Q6ZMN7
RHPN1, Q8TCX5 = target: T5, RHPN1, Q8TCX5
T5 sequence (Q8TCX5 508-602, limits assumed, looked up): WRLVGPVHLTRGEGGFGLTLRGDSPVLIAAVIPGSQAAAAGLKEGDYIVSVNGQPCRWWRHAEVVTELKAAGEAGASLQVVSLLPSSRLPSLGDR

PDZRN3_1, Q9UPQ7 = target: T6, PDZRN3_1, Q9UPQ7
T6 sequence (Q9UPQ7 244-349, limits assumed, looked up): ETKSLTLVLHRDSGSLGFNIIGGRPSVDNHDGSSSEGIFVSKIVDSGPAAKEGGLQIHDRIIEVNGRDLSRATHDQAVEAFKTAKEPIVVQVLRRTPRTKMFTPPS

DFNB31_3, Q9P202 = target: T7, DFNB31_3, Q9P202
T7 sequence (Q9P202 811-907, limits assumed, looked up): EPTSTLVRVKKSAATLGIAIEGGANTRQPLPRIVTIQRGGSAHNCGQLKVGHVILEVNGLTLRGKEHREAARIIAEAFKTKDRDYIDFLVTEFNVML

MAGI1_1, Q96QZ7 = target: MAGI1_1, Q96QZ7
DVL3, Q92997 = target: T8, DVL3, Q92997
T8 sequence (Q92997 244-331, limits assumed, looked up): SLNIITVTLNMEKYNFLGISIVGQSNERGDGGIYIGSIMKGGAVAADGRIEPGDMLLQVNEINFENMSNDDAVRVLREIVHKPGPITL

HTRA1, Q92743 = target: HTRA1, Q92743
GRIP1_2, Q9Y3R0 = target: T9, GRIP1_2, Q9Y3R0
T9 sequence (Q9Y3R0 145-248, limits assumed, looked up): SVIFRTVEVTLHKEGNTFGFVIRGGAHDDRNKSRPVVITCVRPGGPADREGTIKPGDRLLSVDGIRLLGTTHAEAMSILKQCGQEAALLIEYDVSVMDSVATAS

DLG4_3, P78352 = target: DLG4_3, P78352
DLG4_2, P78352 = target: DLG4_2, P78352
RADIL, Q96JH8 = target: T10, RADIL, Q96JH8
T10 sequence (Q96JH8 971-1071, limits assumed, looked up): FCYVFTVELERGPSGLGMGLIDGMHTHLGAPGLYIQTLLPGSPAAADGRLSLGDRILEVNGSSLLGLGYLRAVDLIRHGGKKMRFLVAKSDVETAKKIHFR

GORASP2, Q9H8Y8 = target: GORASP2, Q9H8Y8
TJP2_1, Q9UDY2 = target: TJP2_1, Q9UDY2
[1] = plain residues with an end cap or a label only (N-terminal biotin on a linker: ado-ado)
[2] = modified: phospho on T at position -2 from the C-terminal residue

Chain of NHERF4_4, Q86UT5 (Q86UT5 464-550): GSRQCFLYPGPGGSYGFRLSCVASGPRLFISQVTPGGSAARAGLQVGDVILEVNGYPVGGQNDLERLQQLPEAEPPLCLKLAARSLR
Chain of DLG4_3, P78352 (P78352 306-403): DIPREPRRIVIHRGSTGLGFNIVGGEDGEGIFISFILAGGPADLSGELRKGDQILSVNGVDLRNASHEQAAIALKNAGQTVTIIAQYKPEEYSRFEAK
Chain of MAGI1_1, Q96QZ7 (Q96QZ7 1-106): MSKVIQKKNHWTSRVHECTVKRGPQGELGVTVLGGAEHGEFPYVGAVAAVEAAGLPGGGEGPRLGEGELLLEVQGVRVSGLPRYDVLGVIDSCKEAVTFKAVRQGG
Chain of LNX1_3, Q8TBB1 (Q8TBB1 500-596): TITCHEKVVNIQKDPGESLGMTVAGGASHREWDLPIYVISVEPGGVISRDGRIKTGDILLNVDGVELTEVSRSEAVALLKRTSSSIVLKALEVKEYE
Chain of TJP2_1, Q9UDY2 (Q9UDY2 24-128): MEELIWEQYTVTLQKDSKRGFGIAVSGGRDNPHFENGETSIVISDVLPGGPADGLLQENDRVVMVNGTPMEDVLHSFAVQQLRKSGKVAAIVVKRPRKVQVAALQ
Chain of MAST2, Q6P0Q8 (Q6P0Q8 1099-1202): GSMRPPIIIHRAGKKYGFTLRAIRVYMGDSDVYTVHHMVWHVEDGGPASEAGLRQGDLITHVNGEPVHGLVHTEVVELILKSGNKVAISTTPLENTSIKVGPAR
Chain of GORASP1, Q9BQQ3 (Q9BQQ3 1-208): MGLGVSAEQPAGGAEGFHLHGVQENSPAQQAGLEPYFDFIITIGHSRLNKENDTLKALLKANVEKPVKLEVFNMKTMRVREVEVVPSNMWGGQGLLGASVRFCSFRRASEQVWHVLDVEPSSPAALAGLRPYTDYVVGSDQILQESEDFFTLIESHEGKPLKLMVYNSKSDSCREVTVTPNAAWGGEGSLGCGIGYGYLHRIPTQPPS
Chain of LNX1_1, Q8TBB1 (Q8TBB1 261-371): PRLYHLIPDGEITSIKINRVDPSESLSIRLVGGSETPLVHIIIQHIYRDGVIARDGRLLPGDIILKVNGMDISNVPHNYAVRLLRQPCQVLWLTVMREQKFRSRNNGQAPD
Chain of NHERF4_2, Q86UT5 (Q86UT5 220-308): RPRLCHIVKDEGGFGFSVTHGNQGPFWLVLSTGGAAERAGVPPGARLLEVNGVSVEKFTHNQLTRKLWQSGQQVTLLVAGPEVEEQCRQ
Chain of HTRA1, Q92743 (Q92743 360-477): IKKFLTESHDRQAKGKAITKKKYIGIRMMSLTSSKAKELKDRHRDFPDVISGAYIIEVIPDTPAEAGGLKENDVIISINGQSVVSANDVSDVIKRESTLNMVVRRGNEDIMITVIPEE
Chain of PDLIM1, O00151 (O00151 1-87): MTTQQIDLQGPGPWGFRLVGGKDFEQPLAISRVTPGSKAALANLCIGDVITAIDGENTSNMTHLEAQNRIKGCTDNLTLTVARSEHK
Chain of GIPC2, Q8TF65 (Q8TF65 112-203): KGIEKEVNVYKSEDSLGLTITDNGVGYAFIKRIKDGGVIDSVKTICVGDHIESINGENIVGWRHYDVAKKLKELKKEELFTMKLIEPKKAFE
Chain of SCRIB_1, Q14160 (Q14160 718-814): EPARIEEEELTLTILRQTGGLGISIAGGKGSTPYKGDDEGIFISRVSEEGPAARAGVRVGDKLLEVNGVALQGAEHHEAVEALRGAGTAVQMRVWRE
Chain of PDZRN4_1, Q6ZMN7 (Q6ZMN7 213-318): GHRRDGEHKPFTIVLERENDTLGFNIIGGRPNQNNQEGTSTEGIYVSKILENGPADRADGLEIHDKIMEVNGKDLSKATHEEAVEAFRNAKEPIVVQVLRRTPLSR
Chain of Inadl_10, Q8NI35 (Q8NI35 1673-1763): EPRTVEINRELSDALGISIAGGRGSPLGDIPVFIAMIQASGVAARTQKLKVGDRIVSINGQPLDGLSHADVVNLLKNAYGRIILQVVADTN
Chain of DLG4_2, P78352 (P78352 155-259): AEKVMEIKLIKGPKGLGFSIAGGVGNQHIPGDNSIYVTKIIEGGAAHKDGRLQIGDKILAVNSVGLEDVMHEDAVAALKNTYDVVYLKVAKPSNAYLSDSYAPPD

RRRESYSTTV [EVI5, O60447]
pKd (LIN7A, O14910; [1]): below the threshold
pKd (MAST2, Q6P0Q8; [1]): 5.66
pKd (NHERF4_4, Q86UT5; [1]): below the threshold
pKd (GRIP1_3, Q9Y3R0; [1]): below the threshold
pKd (GRIP1_5, Q9Y3R0; [1]): below the threshold
pKd (RAPGEF6, Q8TEU7; [1]): below the threshold
pKd (LNX1_3, Q8TBB1; [1]): below the threshold
pKd (LNX1_1, Q8TBB1; [1]): 4.47
pKd (GORASP1, Q9BQQ3; [1]): 4.7
pKd (PDLIM1, O00151; [1]): below the threshold
pKd (Inadl_10, Q8NI35; [1]): 3.8
pKd (NHERF4_2, Q86UT5; [1]): below the threshold
pKd (SCRIB_1, Q14160; [1]): 4.57
pKd (GIPC2, Q8TF65; [1]): below the threshold
pKd (PDZRN4_1, Q6ZMN7; [1]): 4.23
pKd (RHPN1, Q8TCX5; [1]): below the threshold
pKd (PDZRN3_1, Q9UPQ7; [1]): 3.83
pKd (DFNB31_3, Q9P202; [1]): below the threshold
pKd (MAGI1_1, Q96QZ7; [1]): below the threshold
pKd (DVL3, Q92997; [1]): below the threshold
pKd (HTRA1, Q92743; [1]): 4.45
pKd (GRIP1_2, Q9Y3R0; [1]): below the threshold
pKd (DLG4_3, P78352; [1]): 4.44
pKd (DLG4_2, P78352; [1]): 5.87
pKd (RADIL, Q96JH8; [1]): 4.8
pKd (GORASP2, Q9H8Y8; [1]): 5.13
pKd (TJP2_1, Q9UDY2; [1]): 4.84

LRSPRTPSEV [OR10G3, Q8NGC4]
pKd (LIN7A, O14910; [1]): below the threshold
pKd (MAST2, Q6P0Q8; [1]): 3.61
pKd (NHERF4_4, Q86UT5; [1]): below the threshold
pKd (GRIP1_3, Q9Y3R0; [1]): below the threshold
pKd (GRIP1_5, Q9Y3R0; [1]): below the threshold
pKd (RAPGEF6, Q8TEU7; [1]): below the threshold
pKd (LNX1_3, Q8TBB1; [1]): below the threshold
pKd (LNX1_1, Q8TBB1; [1]): below the threshold
pKd (GORASP1, Q9BQQ3; [1]): below the threshold
pKd (PDLIM1, O00151; [1]): below the threshold
pKd (Inadl_10, Q8NI35; [1]): below the threshold
pKd (NHERF4_2, Q86UT5; [1]): below the threshold
pKd (SCRIB_1, Q14160; [1]): below the threshold
pKd (GIPC2, Q8TF65; [1]): below the threshold
pKd (PDZRN4_1, Q6ZMN7; [1]): below the threshold
pKd (RHPN1, Q8TCX5; [1]): below the threshold
pKd (PDZRN3_1, Q9UPQ7; [1]): below the threshold
pKd (DFNB31_3, Q9P202; [1]): 3.79
pKd (MAGI1_1, Q96QZ7; [1]): below the threshold
pKd (DVL3, Q92997; [1]): below the threshold
pKd (HTRA1, Q92743; [1]): 3.58
pKd (GRIP1_2, Q9Y3R0; [1]): below the threshold
pKd (DLG4_3, P78352; [1]): below the threshold
pKd (DLG4_2, P78352; [1]): 3.88
pKd (RADIL, Q96JH8; [1]): below the threshold
pKd (GORASP2, Q9H8Y8; [1]): below the threshold
pKd (TJP2_1, Q9UDY2; [1]): below the threshold

SKPTRRETEV [HPV35-E6_-2P, P27228]
pKd (LIN7A, O14910; [2]): below the threshold
pKd (MAST2, Q6P0Q8; [2]): below the threshold
pKd (NHERF4_4, Q86UT5; [2]): 3.86
pKd (GRIP1_3, Q9Y3R0; [2]): below the threshold
pKd (GRIP1_5, Q9Y3R0; [2]): below the threshold
pKd (RAPGEF6, Q8TEU7; [2]): below the threshold
pKd (LNX1_3, Q8TBB1; [2]): below the threshold
pKd (LNX1_1, Q8TBB1; [2]): below the threshold
pKd (GORASP1, Q9BQQ3; [2]): below the threshold
pKd (PDLIM1, O00151; [2]): below the threshold
pKd (Inadl_10, Q8NI35; [2]): below the threshold
pKd (NHERF4_2, Q86UT5; [2]): below the threshold
pKd (SCRIB_1, Q14160; [2]): below the threshold
pKd (GIPC2, Q8TF65; [2]): below the threshold
pKd (PDZRN4_1, Q6ZMN7; [2]): below the threshold
pKd (RHPN1, Q8TCX5; [2]): below the threshold
pKd (PDZRN3_1, Q9UPQ7; [2]): below the threshold
pKd (DFNB31_3, Q9P202; [2]): 3.95
pKd (MAGI1_1, Q96QZ7; [2]): below the threshold
pKd (DVL3, Q92997; [2]): below the threshold
pKd (HTRA1, Q92743; [2]): below the threshold
pKd (GRIP1_2, Q9Y3R0; [2]): below the threshold
pKd (DLG4_3, P78352; [2]): below the threshold
pKd (DLG4_2, P78352; [2]): 3.56
pKd (RADIL, Q96JH8; [2]): below the threshold
pKd (GORASP2, Q9H8Y8; [2]): below the threshold
pKd (TJP2_1, Q9UDY2; [2]): below the threshold
